Entries after “also recorded” stand apart in the source; their conditions may differ. Marks after values point to notes of the source that are not given here.
Key:
Assay type in all cases: biochemical
[1] = Transpeptidation of FA-Ala-OBzl with H-Leu-NH2, Table 3; details: for fa: H-Leu-NH2; for change in famax and KN(app), in words: compared with wild type, Table 3
Method: (§1) Transamidation reactions were carried out generally as described in PCT Application WO 95/20039. In general, the method included dissolving the nucleophile (H-Leu-NH2, unless otherwise indicated) in 50 mM HEPES, 5 mM EDTA and adjusting the pH to 7.5, 5 μl of peptide substrate (8 mM Bz-G-A-R-A-R-A-OH, unless otherwise indicated, in methanol) was added to 190 μl nucleophile solution followed by 5 μl enzyme, resulting in a substrate concentration of 0.2 mM.
(§2) During the reaction, 20 μl aliquots were removed from the reaction mixture and added to 50 μl 1% trifluoroacetic acid to quench the reaction. The reactant composition was determined by HPLC using a Waters HPLC equipped with a C-18 Waters Novapac 4μ reverse phase column and various gradients of acetonitrile in 0.1% trifluoroacetic acid. The separation was monitored at 254 nm allowing the direct quantification of the products from the integrated peak areas. The composition of the reaction mixture was determined at least twvice during the reaction, the first when 20-50% (preferably 35%) of the substrate had been consumed in the reaction and the second time when 50-90% (preferably 80%) of the peptide substrate had been consumed.
(§3) The fraction of aminolysis (fa) was expressed as the ratio between the formed aminolysis product and the sum of all products formed. Unconsumed substrate was disregarded in the calculations.
Site specific mutagenesis was performed as described in Example 1 to produce the specific substitution mutants described below. Transamidation reactions were performed as described for Example 1.
In table 3, below, KN(app) represents the nucleophile concentration at which fa is half of the maximum value (a measure for the dissociation constant of the nucleophile). famax is the highest possible fa obtained at saturation of the enzyme with the nucleophile.
KN(app) indicates the concentration at which famax/2 is reached and thus describes the apparent binding constant of the nucleophile. Because the competing hydrolysis reaction is thought to occur while the leaving group remains attached to the to the acyl-enzyme intermediate, a low KN(app) is preferred.

[2] = Transpeptidation of FA-Ala-Xaa-OH with H-Gly-NH2, Table 2; details: for Fraction of aminolysis (fa), P1' Ala: FA-Ala-Ala-OH 0.2 mM; for Fraction of aminolysis (fa), P1' Ala / Fraction of aminolysis (fa), P1' Leu / Fraction of aminolysis (fa), P1' Met / Fraction of aminolysis (fa), P1' Phe / Fraction of aminolysis (fa), P1' Val: 1.9 M H-Gly-NH2, pH 7.5, room temperature; for Fraction of aminolysis (fa), P1' Leu: FA-Ala-Leu-OH 0.2 mM; for Fraction of aminolysis (fa), P1' Met: FA-Ala-Met-OH 0.2 mM; for Fraction of aminolysis (fa), P1' Phe: FA-Ala-Phe-OH 0.2 mM; for Fraction of aminolysis (fa), P1' Val: FA-Ala-Val-OH 0.2 mM; for fraction of aminolysis compared to wild type, in words: larger, hydrophobic leaving group such as leucine
Method: as §1, §2, §3
Site specific mutagenesis was performed as described for Example 1 to produce the S1 mutants used below.
Transamidation reactions were performed as described for Example 1.

[3] = Transpeptidation of Bz-G-A-R-A-R-X-OH at pH 7.5 at 50% substrate consumption, Table 4; set-up: key to fa: fraction: aminolysis product / sum of all products formed; details: for Pmax (peak product yield) / fa: 375 mM H-Leu-NH2; for fa / t: 50% substrate consumption; for t: 375 mM H-Leu-NH2, 2 mM substrate, [E] 0.1 mg/mL
Method: as §1, §2, §3
Site specific mutagenesis was performed as described for Example 1 to generate the specific mutants described below. Transamidation reactions were performed as described for Examples 1.

B1: M398E: carboxypeptidase Y S1' mutant, substitution M398E (protein, UniProt P00729 112-532, looked up, variant M398E)
Carboxypeptidase Y: KIKDPKILGIDPNVTQYTGYLDVEDEDKHFFFWTFESRNDPAKDPVILWLNGGPGCSSLTGLFFELGPSSIGPDLKPIGNPYSWNSNATVIFLDQPVNVGFSYSGSSGVSNTVAAGKDVYNFLELFFDQFPEYVNKGQDFHIAGESYAGHYIPVFASEILSHKDRNFNLTSVLIGNGLTDPLTQYNYYEPMACGEGGEPSVLPSEECSAMEDSLERCLGLIESCYDSQSVWSCVPATIYCNNAQLAPYQRTGRNVYDIRKDCEGGNLCYPTLQDIDDYLNQDYVKEAVGAEVDHYESCNFDINRNFLFAGDWMKPYHTAVTDLLNQDLPILVYAGDKDFICNWLGNKAWTDVLPWKYDEEFASQKVRNWTASITDEVAGEVKSYKHFTYLRVFNGGHEVPFDVPENALSMVNEWIHGGFSL
With B1 the fa ([1]; FA-Ala-OBzl 0.2 mM, pH 7.5) was 0.97^a, the “change in famax and KN(app), in words” value [1] was “increase in famax while decreasing KN(app)” and the “KN(app)” value ([1]; nucleophile H-Leu-NH2 concentration at which fa is half of maximum, FA-Ala-OBzl 0.2 mM, pH 7.5) was 0.93^a mM. The “Fraction of aminolysis (fa), P1' Ala” value [2] was 0.92, the “Fraction of aminolysis (fa), P1' Leu” value [2] was 0.84 and the “Fraction of aminolysis (fa), P1' Met” value [2] was 0.74. The “Fraction of aminolysis (fa), P1' Phe” value [2] was 0.71, the “Fraction of aminolysis (fa), P1' Val” value [2] was 0.82 and the “fraction of aminolysis compared to wild type, in words” value [2] was “improvement in fraction of aminolysis obtained; also recorded: most dramatic improvement; also recorded: enhanced transpeptidation”.

B2: T60L: carboxypeptidase Y S1' mutant, substitution T60L (protein, UniProt P00729 112-532, looked up, variant T60L)
Carboxypeptidase Y: KIKDPKILGIDPNVTQYTGYLDVEDEDKHFFFWTFESRNDPAKDPVILWLNGGPGCSSLLGLFFELGPSSIGPDLKPIGNPYSWNSNATVIFLDQPVNVGFSYSGSSGVSNTVAAGKDVYNFLELFFDQFPEYVNKGQDFHIAGESYAGHYIPVFASEILSHKDRNFNLTSVLIGNGLTDPLTQYNYYEPMACGEGGEPSVLPSEECSAMEDSLERCLGLIESCYDSQSVWSCVPATIYCNNAQLAPYQRTGRNVYDIRKDCEGGNLCYPTLQDIDDYLNQDYVKEAVGAEVDHYESCNFDINRNFLFAGDWMKPYHTAVTDLLNQDLPILVYAGDKDFICNWLGNKAWTDVLPWKYDEEFASQKVRNWTASITDEVAGEVKSYKHFTYLRVFNGGHMVPFDVPENALSMVNEWIHGGFSL
For B2, the fa ([1]; FA-Ala-OBzl 0.2 mM, pH 7.5) was 1.0^b, the “change in famax and KN(app), in words” value [1] was “increase in both famax and KN(app)” and the “Fraction of aminolysis (fa), P1' Ala” value [2] was 0.91. The “Fraction of aminolysis (fa), P1' Leu” value [2] was 0.13, the “Fraction of aminolysis (fa), P1' Met” value [2] was 0.08 and the “Fraction of aminolysis (fa), P1' Phe” value [2] was 0.24. For the same molecule, the “Fraction of aminolysis (fa), P1' Val” value [2] was 0.17.

B3: T60V: carboxypeptidase Y S1' mutant, substitution T60V (protein, UniProt P00729 112-532, looked up, variant T60V)
Carboxypeptidase Y: KIKDPKILGIDPNVTQYTGYLDVEDEDKHFFFWTFESRNDPAKDPVILWLNGGPGCSSLVGLFFELGPSSIGPDLKPIGNPYSWNSNATVIFLDQPVNVGFSYSGSSGVSNTVAAGKDVYNFLELFFDQFPEYVNKGQDFHIAGESYAGHYIPVFASEILSHKDRNFNLTSVLIGNGLTDPLTQYNYYEPMACGEGGEPSVLPSEECSAMEDSLERCLGLIESCYDSQSVWSCVPATIYCNNAQLAPYQRTGRNVYDIRKDCEGGNLCYPTLQDIDDYLNQDYVKEAVGAEVDHYESCNFDINRNFLFAGDWMKPYHTAVTDLLNQDLPILVYAGDKDFICNWLGNKAWTDVLPWKYDEEFASQKVRNWTASITDEVAGEVKSYKHFTYLRVFNGGHMVPFDVPENALSMVNEWIHGGFSL
For B3, the fa ([1]; FA-Ala-OBzl 0.2 mM, pH 7.5) was 0.97^a, the “change in famax and KN(app), in words” value [1] was “increase in both famax and KN(app)” and the “Fraction of aminolysis (fa), P1' Ala” value [2] was 0.94. For the same molecule, the “Fraction of aminolysis (fa), P1' Leu” value [2] was 0.15, the “Fraction of aminolysis (fa), P1' Met” value [2] was 0.17 and the “Fraction of aminolysis (fa), P1' Phe” value [2] was 0.08. The “Fraction of aminolysis (fa), P1' Val” value [2] was 0.29.

B4: T60W: carboxypeptidase Y S1' mutant, substitution T60W (protein, UniProt P00729 112-532, looked up, variant T60W)
Carboxypeptidase Y: KIKDPKILGIDPNVTQYTGYLDVEDEDKHFFFWTFESRNDPAKDPVILWLNGGPGCSSLWGLFFELGPSSIGPDLKPIGNPYSWNSNATVIFLDQPVNVGFSYSGSSGVSNTVAAGKDVYNFLELFFDQFPEYVNKGQDFHIAGESYAGHYIPVFASEILSHKDRNFNLTSVLIGNGLTDPLTQYNYYEPMACGEGGEPSVLPSEECSAMEDSLERCLGLIESCYDSQSVWSCVPATIYCNNAQLAPYQRTGRNVYDIRKDCEGGNLCYPTLQDIDDYLNQDYVKEAVGAEVDHYESCNFDINRNFLFAGDWMKPYHTAVTDLLNQDLPILVYAGDKDFICNWLGNKAWTDVLPWKYDEEFASQKVRNWTASITDEVAGEVKSYKHFTYLRVFNGGHMVPFDVPENALSMVNEWIHGGFSL
With B4 the fa ([1]; FA-Ala-OBzl 0.2 mM, pH 7.5) was 0.96^a, the “change in famax and KN(app), in words” value [1] was “increase in both famax and KN(app)” and the “Fraction of aminolysis (fa), P1' Ala” value [2] was 0.93. The “Fraction of aminolysis (fa), P1' Leu” value [2] was 0.45, the “Fraction of aminolysis (fa), P1' Met” value [2] was 0.49 and the “Fraction of aminolysis (fa), P1' Phe” value [2] was 0.47. For the same molecule, the “Fraction of aminolysis (fa), P1' Val” value [2] was 0.39 and the “fraction of aminolysis compared to wild type, in words” value [2] was “improvement in fraction of aminolysis obtained; also recorded: most effective at increasing the fraction of aminolysis”.

B5: N51Q + M398L: carboxypeptidase Y mutant N51Q + M398L (protein, UniProt P00729 112-532, looked up, variant N51Q M398L)
Carboxypeptidase Y: KIKDPKILGIDPNVTQYTGYLDVEDEDKHFFFWTFESRNDPAKDPVILWLQGGPGCSSLTGLFFELGPSSIGPDLKPIGNPYSWNSNATVIFLDQPVNVGFSYSGSSGVSNTVAAGKDVYNFLELFFDQFPEYVNKGQDFHIAGESYAGHYIPVFASEILSHKDRNFNLTSVLIGNGLTDPLTQYNYYEPMACGEGGEPSVLPSEECSAMEDSLERCLGLIESCYDSQSVWSCVPATIYCNNAQLAPYQRTGRNVYDIRKDCEGGNLCYPTLQDIDDYLNQDYVKEAVGAEVDHYESCNFDINRNFLFAGDWMKPYHTAVTDLLNQDLPILVYAGDKDFICNWLGNKAWTDVLPWKYDEEFASQKVRNWTASITDEVAGEVKSYKHFTYLRVFNGGHLVPFDVPENALSMVNEWIHGGFSL
With B5 the “Pmax (peak product yield)” value ([3]; leaving group A) was greater than 0.07, the fa ([3]; leaving group A) was 0.18 and the “t” value ([3]; leaving group A) was 3200 min. For the same molecule, the “Pmax (peak product yield)” value ([3]; leaving group L) was greater than 0.04, the fa ([3]; leaving group L) was 0.10 and the “t” value ([3]; leaving group L) was 3500 min.

B6: T60F + M398F: carboxypeptidase Y double substitution mutant T60F + M398F (protein, UniProt P00729 112-532, looked up, variant T60F M398F)
Carboxypeptidase Y: KIKDPKILGIDPNVTQYTGYLDVEDEDKHFFFWTFESRNDPAKDPVILWLNGGPGCSSLFGLFFELGPSSIGPDLKPIGNPYSWNSNATVIFLDQPVNVGFSYSGSSGVSNTVAAGKDVYNFLELFFDQFPEYVNKGQDFHIAGESYAGHYIPVFASEILSHKDRNFNLTSVLIGNGLTDPLTQYNYYEPMACGEGGEPSVLPSEECSAMEDSLERCLGLIESCYDSQSVWSCVPATIYCNNAQLAPYQRTGRNVYDIRKDCEGGNLCYPTLQDIDDYLNQDYVKEAVGAEVDHYESCNFDINRNFLFAGDWMKPYHTAVTDLLNQDLPILVYAGDKDFICNWLGNKAWTDVLPWKYDEEFASQKVRNWTASITDEVAGEVKSYKHFTYLRVFNGGHFVPFDVPENALSMVNEWIHGGFSL
For B6, the “Fraction of aminolysis (fa), P1' Ala” value [2] was 0.86, the “Fraction of aminolysis (fa), P1' Leu” value [2] was 0.86 and the “Fraction of aminolysis (fa), P1' Met” value [2] was 0.82. For the same molecule, the “Fraction of aminolysis (fa), P1' Phe” value [2] was 0.66, the “Fraction of aminolysis (fa), P1' Val” value [2] was 0.73 and the “fraction of aminolysis compared to wild type, in words” value [2] was “further improved the fraction of aminolysis”.

Source: patent US20010010923A1, “MODIFIED CARBOXYPEPTIDASE” (priority 1997, published 2001)
